Experimental data taken from the DeepSol protein solubility set.

Assay: soluble on expression in E. coli; label from the status in PepcDB or PDB records

Row | Sequence | soluble on expression in E. coli
1 | SSAEQSFLFSREEADTLRLKVEELEGERSRLEEEKRMLEAQLERRALQGDYDQSRTKVLHMSLNPTSVARQRLREDHSQLQAECERLRGLLRAMERGGTV | soluble
2 | MLSNDILRSVRYILKANNNDLVRILALGNVEATAEQIAVWLRKEDEEGFQRCPDIVLSSFLNGLIYEKRGKDESAPALEPERRINNNIVLKKLRIAFSLKTDDILAILTEQQFRVSMPEITAMMRAPDHKNFRECGDQFLRYFLRGLAARQHVKKG | soluble
3 | MGHHHHHHSHALLEKEILEKVSSPFIVSLAYAFESKTHLCLVMSLMNGGDLKFHIYNVGTRGLDMSRVIFYSAQIACGMLHLHELGIVYRDMKPENVLLDDLGNCRLSDLGLAVEMKGGKPITQRAGTNGYMAPEILMEKVSYSYPVDWFAMGCSIYEMVAGRTPFKDYKEKVSKEDLKQRTLQDEVKFQHDNFTEEAKDICRLFLAKKPEQRLGSR | not soluble
4 | MSQNSDTFDSGLQMEVHKMAEADNSSVQQKFDAIRDYIGRKETTIILCEHDDSRKIKLTLNKQRMESSMFLTEMPDGGIQEKTKFHRNGLAVCSYNAFDEVDLPLADSYIFYGLPSNVEAFPRMLHGIEKSAHKENKIVFIDIVVSILEKIQIKVVSFELYNRKCTVPTWVAELVITYCAPIEEQQQRIEEIRRTRASVPVAISDAANGSAEMVPSNTTGSSGSPMSTAPVPAAKKEKVQYESIRQIRPNAQGRYFVPARMINMDIEMSNDEYSPDESENDENEYDYENAARYDDGYDEGHEYCQ | not soluble
5 | MNMKNELHVISNGHMPFEELVNVAMQIESEIDYLHIREREKSTKELYEGVESLLMEGFPASKIVINDRIDIAILLNIPRVQLGYRSTDVKSVKEKFSYLHVGYSVHSLDEAIVAFKNGADSLVYGHVFPTDCKKGVPARGLEEISDIARCLSIPITAIGGITPENTVDVLTNGVSGIAVMSGIVSSSNPYSKAKSYKESIRKWAEKHV | not soluble
6 | MAHHHHHHMPSRRFNARRGMIAARRGFFTATSPCRQSRLVPFHELFAPLSSSSLPSSPRRFPVHSVCVDPPLGTLGEPSRSQGAGAEDGSPLSWLRENLQLLEDGRKSLNERRASMPEGSPQWPRYMFPSHCCEYIYDPSNDSKLAFVTSDNYCHLCHEPVEVAIQHCAWWDHVTRLAAIRLIAIYPRRWSPVAVLREANEVLPTAVMVSPRPHPFLSFSEAVDTDDVSLMDMSSCYVFEREAVVRRAELAAILRVLCTAKDADSCDDAEQRISSIIPVLRESLFLSANGTPAASSGERTFRAYISRQISVFLPPMAPEPTTRIQQRCWGRKNLEIMFDLLGVASLQRIAGAPVEAVTKNEKAAVLRQIIYELATVLSEGDAEFAETSCAKINGTSSVDAEVQTRLLAEMALQRLAHELIHLHTMLLMDQAYETYVKLGYPSEGMLEKSGFC | not soluble
7 | MGSDKIHHHHHHMTGLTEDLFGELLPPASPPQACVAGGGAPSPDKASRGKSVLPARPDPAIDALARRLPPNLYLGTSSWSYNGWNGLVYDGEYSDNLLSRKGLAAYSRHPLLRAAGIDRGFYGPIPLADYLSYAAQVPEQFRFLVKAPASVCDAWLRGSDGVGRLANAAFLDAEIAIRDFITPATSGLGAKCGPLLFQLSPLGSLANDAAAFLDRLDGFLSALPPLDPSITPHACYAVEMRDPVLLTPRYIKLLRRYGVRFCLSARDRLPPVHRQASAQALMDAEAPGPLVLRWMLHAGRPYEVAESIYAPFNRLVDEDPETRDAIADLVVRTLNAGQSATVIISNKAEGSAPLTCIRLAEAIAARL | not soluble
8 | MAATQEEIVAGLAEIVNEIAGIPVEDVKLDKSFTDDLDVDSLSMVEVVVAAEERFDVKIPDDDVKNLKTVGDATKYILDHQA | soluble
9 | VKKNVSGEPYVEGSGSNDVRTGAPIDEIDRILLDQLSRDARTPNNALAALAGIAPSTCLGRVRSLIDRGVIRGFHADIDPATLGRDLQAMIAVRVQANARQHLGQLAEQLATLDEVLNVYFIAGADDYLIHVATASSEELRRFVLDHLSAHPAVASTETILIFEHVRPRHRAPRTEQSSGR | soluble
10 | MAENRNRKPSDSQVDAIKVPPHSLEAEQSVIGGLLLDNERWDTVAERVVASDFYSRPHRLIFEGVKTILESGKPLDLITLSEHLERHEQLEDVGGFAYLADLAKNTPSAANINAYADIVAERAIVRGLIGVANEIADAGYDPQGRSSEDLIDMAESKVFAIAESRTSENEGPQNVDNILEKTLERIELLYKTPQDGVTGVDTGFTDLNKKTAGLQGSDLVIVAARPSMGKTTFAMNLCENAAMQQDKPVLIFSLEMPAEQLMMRMLASLSRVDQTKIRTGQLDDEDWARISSTMGILMQKKNMYIDDSSGLTPTEVRSRARRVAREHGGLSMIMVDYLQLMRVPSLTDNRTLEIAEISRSLKALAKELNVPVVALSQLNRSLEQRADKRPVNSDLRESGSIEQDADLIMFIYRDEVYHPDSPYKGTAEIIIGKQRNGPIGSVRLTFQGQHSRFDNYAGPAFDIDDE | not soluble
11 | MKKWVCTVCGYIYDEDAGDPDNGISPGTKFEELPDDWVCPLCGVGKDQFEKLED | soluble
12 | MTKQYLTHRCLIAPPEMADDFFANTVIYLARHDDEGAQGLIINRPSGIQVRELLNDLDIEADHVQPHEVLQGGPLRPEAGFVLHTGQPVWHSSIAVGENLCITTSKDILDAIAHNEGVGRYQIALGYASWTKNQLEGEISRGDWLICDADMDLIFNLPYDERWDAAYKKLGVDRIWLSSEIGHALEHHHHHH | soluble
13 | MSLTEAPRVRLAEAEVFERPVEFRFPFRFGSARVATAPQAFVRVRVEDARGRSAIGWSAEMMMPKWFDKNPGLSPEDNVEQLRASLRLAIEGLTSLQAQTPFGLHAAAEGDHHRAAAGHGLPALVASYGLALLDRAILDALCRMTGASAAGAVRANLPGITGATAPDLEGFDLARFLSRLEPGPRLAVRHTIGLADALTAADLAPGQRLEDGLPQTLEEVIAAYGHRYFKIKVSGRPAEDTRRLLAIAAVLDQRVDAYRVTLDGNEQFENADAVADLLDRIAEEPRLEKLRASALFFEQPIVRAEALSRPVTEVAGRMPLEIDESDGDIGAFLRARALGYAGISSKSCKGFYRALVNRARVEMWNAEAGAARSFMSAEDLTTQSGLALQQDLVLAALVGAGHVERNGHHYVDGMAGAPAAEQAAYLAHHGDLYESGSGRARLAIRGGEITFSTVLRSVGLGSSVEPDWVAMVSEGHHHHHH | not soluble
14 | MFFERHGGGERAILVHLDGQDPEAREDPQEFQELALSAGAETVAFVSVPRHRPTAKYLVGSGKVEELRDLVKAEQVDLVIFNHILTPSQERNLERVFECRVIDRTGLILDIFAQRARTHEGKLQVELAQLEHMSTRLVRGWTHLERQKGGIGLRGPGETQLETDRRLLRVRLRQIKARLEKVRSQREQARRGRKRADIPSVSLVGYTNAGKSTLFNAVTASDVFAADQLFATLDPTLRRLELDDLGPIVLADTVGFIRHLPHKLVEAFRATLEESSNSDLLLHVIDAHEPERMAQIEQVMVVLGEIGAQDLPILEVYNKLDLLEGVEPQIQRDPDGKPQRVWLSARDGQGLDLLKQAIAELLGEDLFVGTLRLPQRFARLRAQFFQLNAVQKEDHDDEGVSLLAVRLPRAELNRLVSREGMQPSEFIEQHTLQLEHHHHHH | soluble
15 | MAHHHHHHMAKLLPPPFHGYIRKMFFPLRNAASASRKCCLHTHVQQKNGMMKTTPLISKRSYFTSLYDTKTEKTKLMNEMDDLYDHILTSNWNDSVHLVLNVSIWEGILNSIEDKVKLYEQDEDIMKKKKIINEIFDVLFILEDLRDHVNELLEQSSRASGLAGTHILASFKIENMNEHIEFLKTKYDELLLKYPLYKYQIDMVLGKGLALLRQKYNFEWRHMHNFFF | not soluble
16 | MTAAADLILYNGDVHVLTDTATPADPAHSAVAIRDGRIVGLSNDYDAAFRADTGTREVDLGGRVVVPGFVDAHTHLAVLGKHGVHADLRGADSPAAATARLAERARETDAGWVLGFGYDDSQWSAALSTADLDAVSEARPVAAIREDMHTATVNGVALAEHGDEMPAADVGEDGRIVEDAVEAVYDATDPDLAGTRPLIEAAQREANERGVTAVHEMVRDSHAPRVYRELDAAGELSVRVRLNYWADHLDAVLETGLVTNHGGGMVTVGGIKTYTDGSLGGRTAKLSEPYADAPGETGQWVVDPSALAALVERADDAGLQVVAHAIGDAAVDAVLDAYEDAGERRHRIEHAELASDDAIERMADLGVVASVQPNFLKWAGSGGLYADRLGTARREASNRFADMLDAGVDVAFGSDCMPLAPLVGVHHAVTAPADAQRLSVTAALRAYTSGGARAGCREDEQGVIREGALADLTVLDASPWEHADAIADEVGVSMTVVDGAVVYDGRLEHHHHHH | not soluble
17 | MSEAEYFSHFISNGNGKLLEIPQRRGRQDGVFIDWLSFTLHEDSLLKVSGCPLVSDAEYMFVLSKKLEEILGFGITSRCKSKGNKFYDSMFRLGSEEVDYGEVHYGGQRNTVLIELKGVGCNIANPGWELRLKQFLEDSLRPRITRVDLALDFFDGEYTPEQALLDHDNGFFDNSNMRPKSEMVGTAWRREDGSGKTFYVGRKKNSRFVRVYEKGRQLGDKESKWVRFEIQFNHGDMEIPLDILINQGSYFSGAFPICQKFKNMPNPERFDYRKKVANLTFQHKLRYAKNAVGKLINFMFDMGFDSDEIVRYLKADLGYPKGLEPEKYSLAGLKESLKFGFIHEQPDVDLEVELEELGIIKFKQSDKFDPDKRLFDPHHDVESERQYQLYLDRMYDLHANQN | not soluble
18 | MSLRPFATKAEADAAVADIRARGRLIVGLDIGSNLFSFRDPITGEITGFDVDIAGEVARDIFGVPSHVEYRILSAAERVTALQKSQVDIVVKTMSITCERRKLVNFSTVYLDANQRILAPRDSPITKVSDLSGKRVCVARGTTSLRRIREIAPPPVIVSVVNWADCLVALQQREIDAVSTDDTILAGLVEEDPYLHIVGPDMADQPYGVGINLDNTGLVRFVNGTLERIRNDGTWNTLYRKWLTVLGEGHHHHHH | soluble
19 | SLDTTRPLSWDFQSQLMSNLKILYCLNMLKLSNWYFGGIMKVYGLFGINENAINDFIENHIKTFTIINALNLETVKNLKEGDLVFITSTLREDLRNGTEGILGRVINVSLVPQMINGFEEKEIIAGRVQLEMLGFAKCVKYESIHVEITFRMY | not soluble
20 | SKIASFDVDAQKGFTPLCPDELPVPGGDAIGGALNQLASRAALRLGSKDAHSPKAAWVVESAEQMLRPLAYPDADLTWVSHCVPGTPGFELLDELPRPIDYDFFVWKGVEPDLHPYGACYHDLAERRSTGVIEYLRQNGVSHVLVGGLALDYCVKNTALQLRRAGFEVLLYLPACRAIAEDTAQRACDEMRDAGVILCADLERLDSALA | not soluble
21 | MSLKTIVVKFGTSTLTQGSPKLNSPHMMEIVRQIAQLHNDGFRIVIVTSGAIAAGRHYLNHPQLPPTIASKQLLAAVGQSQLIQAWEKLFAIYDIHIGQLLLTRADIEDRERFLNARDTLYALLDNHIIPVINENDAVATAEIKVGDNDNLSALVAILVQAEQLYLLTDQQGLFDSDPRKNPEAKLIPVVEQITDHIRSIAGGSGTNLGTGGMMTKIIAADVATRSGIETIIAPGNRPNVIADLAYEQNIGTKFIAHQSDRLESRKQWLFAAPSAGIITIDNGAQNAILEQNKSLLPAGIINVEGRFSRGEVVKIRTQSGKDIALGMPRYNSDALQLIKGRKSADIENVLGYEYGAVAMHRDDMIILSEGHHHHHH | soluble
22 | MPVSSRRCGMITRREAERLCKSFLGDNTPPRLPDDFAFNVQHKCAWGCRGSFLPSRYNSSRAKCIKCSYCGMFFSPNKFIFHSHRITTNDRYVQPDAANFNSWRRHMSLSGNDYDEKIIHAWEDVKAMFNGGTRKRLVGSSINPRSPGSPTQSTAVSSGVGSSSCGSPTSFERDTNEVDGKSGSSLPQRSQIDSQYNYGTVAAAAAVVGVTAVAAATELCSGLHVAAEGPTLSAALRKKNPLEHHHHHH | not soluble
